Ends that are not written are not given here.
T1: CRF2R
T1 sequence (Q13324 whole entry, species assumed, looked up): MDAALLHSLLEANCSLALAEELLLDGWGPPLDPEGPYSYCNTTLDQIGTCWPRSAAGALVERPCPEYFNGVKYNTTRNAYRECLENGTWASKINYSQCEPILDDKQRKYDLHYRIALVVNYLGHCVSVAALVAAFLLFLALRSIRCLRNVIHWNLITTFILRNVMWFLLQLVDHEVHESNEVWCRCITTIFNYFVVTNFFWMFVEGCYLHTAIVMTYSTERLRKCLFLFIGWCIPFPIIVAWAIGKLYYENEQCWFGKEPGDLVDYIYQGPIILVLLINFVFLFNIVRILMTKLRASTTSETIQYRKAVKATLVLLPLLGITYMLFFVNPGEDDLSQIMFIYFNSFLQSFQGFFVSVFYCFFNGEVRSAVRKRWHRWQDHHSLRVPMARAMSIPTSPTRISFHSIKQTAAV


Experiments:
CRF2R = target: T1, CRF2R; test: cell-based or functional assay
CRF1R = test: cell-based or functional assay
Throughout, for CRF1R Emax %: reference of the scale not given here.
Throughout, for CRF2R Emax %: reference of the scale not given here.

Binder | CRF2R EC50 (CRF2R) | CRF2R Emax % (CRF2R) | CRF1R EC50 (CRF1R) | CRF1R Emax % (CRF1R)
ZGPPISIDLPYQLLRKMIEIEKQEKEKQQAANNARLLAR (C-terminal amide) [SEQ ID NO 287] | 11.3 nM | 100% | 1000 nM | –
ZGPPISIDLPYHLLRKMIEIEKQEKEKQQAANNALLLAT (C-terminal amide) [SEQ ID NO 315] | 9.35 nM | 81.7% | 454 nM | 100%
ZGPPISIDLPYQLLRKMIEIEKQEKEKQQAANNARLLAR (C-terminal amide) [SEQ ID NO 288] | 14.7 nM | 100% | 838 nM | –
HHHHHHIVLSLDVPIGLLQILLEQARARAAREQATTNARILARN-NH2 [SEQ ID NO 296] | 6.66 nM | 65% | 100 nM | 4%
IVLSLDVPIGLLQKVIEIEKQEKEKQQATTNARILARV-NH2 [SEQ ID NO 300] | 17.1 nM | 100% | 1000 nM | 7.95%
ZGPPISIDLPIFLLRKVIEIEKQEKEKQQAANNALLLATI (not fully specified; C-terminal amide) [SEQ ID NO 280] | 100 nM | 82.3% | 1000 nM | 11.8%
ZGPPISIDLPYQLLRKVIEIEKQEKEKQQAANNRLLLDTI (C-terminal amide) [SEQ ID NO 283] | 10.6 nM | 72% | 635 nM | 100%
ZGPPISIDLPYWLLRKMIEIEKQEKEKQQAANNALLLDTI (C-terminal amide) [SEQ ID NO 310] | 8.7 nM | 87.5% | 1000 nM | 45.3%
ZGPPISIDLPQALLRKMIEIEKQEKEKQQAANNRLLLDTI (C-terminal amide) [SEQ ID NO 302] | 36.2 nM | 100% | 366 nM | 100%
ZGPPISIDLPIFLLRKMIEIEKQEKEKQQAANNALLLATI (C-terminal amide) [SEQ ID NO 298] | 82 nM | 98.8% | 1000 nM | 20.1%
ZGPPISIDLPYHLLRKVIEIEKQEKEKQQAANNALLLDTI (C-terminal amide) [SEQ ID NO 312] | 14.1 nM | 95% | 870 nM | 62%
ZGPPISIDLPTWLLRKMIEIEKQEKEKQQAANNARLLARI (C-terminal amide) [SEQ ID NO 292] | 100 nM | 86.1% | 1000 nM | 7%
ZGPPISIDLPYHLLRKMIEIEKQEKEKQQAANNALLLDTI (C-terminal amide) [SEQ ID NO 314] | 10.3 nM | 99.8% | 978 nM | 82.4%
ZGPPISIDLPTWLLRKVIEIEKQEKEKQQAANNRLLLDTI (C-terminal amide) [SEQ ID NO 284] | 100 nM | 100% | 1000 nM | 27.7%
ZGPPISIDLPHALLRKMIEIEKQEKEKQQAANNRLLLDTI (C-terminal amide) [SEQ ID NO 304] | 19.3 nM | 92.5% | 116 nM | 100%
ZGPPISIDLPFFLLRKVIEIEKQEKEKQQAANNALLLDTI (C-terminal amide) [SEQ ID NO 316] | 10.2 nM | 94.5% | 222 nM | 92.3%
ZGPPISIDLPQILLRKVIEIEKQEKEKQQAANNALLLATI (C-terminal amide) [SEQ ID NO 299] | 46.4 nM | 71.5% | 1000 nM | 10.2%
ZGPPISIDLPYWLLRKMIEIEKQEKEKQQAANNARLLARI (C-terminal amide) [SEQ ID NO 289] | 12.2 nM | 97.3% | 1000 nM | 69.5%
ZGPPISIDLPQILLRKVIEIEKQEKEKQQAANNARLLARI (C-terminal amide) [SEQ ID NO 294] | 100 nM | 100% | 1000 nM | 13.6%

Binder | CRF2R EC50 (CRF2R) | CRF2R Emax % (CRF2R) | CRF1R EC50 (CRF1R) | CRF1R Emax % (CRF1R)
ZGPPISIDLPFALLRKMIEIEKQEKEKQQAANNRLLLDTI (C-terminal amide) [SEQ ID NO 307] | 5.82 nM | 96.5% | 78.4 nM | 92.7%
ZGPPISIDLPIILLRKMIEIEKQEKEKQQAANNARLLARI (C-terminal amide) [SEQ ID NO 290] | 100 nM | 100% | 1000 nM | 6.4%
ZGPPISIDLPYALLRKMIEIEKQEKEKQQAANNRLLLDTI (C-terminal amide) [SEQ ID NO 309] | 5.55 nM | 99.9% | 108 nM | 96.3%
ZGPPISIDLPVALLRKMIEIEKQEKEKQQAANNRLLLDTI (C-terminal amide) [SEQ ID NO 305] | 35.5 nM | 95.2% | 1000 nM | 59.5%
ZGPPISIDLPAALLRKMIEIEKQEKEKQQAANNRLLLDTI (C-terminal amide) [SEQ ID NO 303] | 27.2 nM | 100% | 582 nM | 100%
ZGPPISIDLPQILLRKVIEIEKQEKEKQQAANNRLLLDTI (C-terminal amide) [SEQ ID NO 293] | 40.3 nM | 87% | 520 nM | 95.3%
ZGPPISIDLPYQLLRKVIEIEKQEKEKQQAANNARLLARI (C-terminal amide) [SEQ ID NO 286] | 13.5 nM | 92.5% | 1000 nM | 19.2%
ZGPPISIDLPLALLRKMIEIEKQEKEKQQAANNRLLLDTI (C-terminal amide) [SEQ ID NO 308] | 3.3 nM | 72.8% | 63.5 nM | 100%
ZGPPISIDLPIFLLRKVIEIEKQEKEKQQAANNARLLARI (C-terminal amide) [SEQ ID NO 281] | 100 nM | 78.8% | 1000 nM | 12.2%
ZGPPISIDLPQILLRKMIEIEKQEKEKQQAANNARLLARI (C-terminal amide) [SEQ ID NO 285] | 13.9 nM | 97.1% | 1000 nM | 11.1%
ZGPPISIDLPIILLRKVIEIEKQEKEKQQAANNARLLARI (C-terminal amide) [SEQ ID NO 295] | 55 nM | 67.6% | 1000 nM | 5.3%
ZGPPISIDLPTALLRKMIEIEKQEKEKQQAANNRLLLDTI (C-terminal amide) [SEQ ID NO 301] | 50.5 nM | 88.4% | 690 nM | 84.1%
ZGPPISIDLPIILLRKVIEIEKQEKEKQQAANNRLLLDTI (C-terminal amide) [SEQ ID NO 297] | 100 nM | 88.3% | 1000 nM | 27.2%
ZGPPISIDLPTWLLRKVIEIEKQEKEKQQAANNARLLARI (C-terminal amide) [SEQ ID NO 291] | 100 nM | 63.8% | 1000 nM | 4.75%
ZGPPISIDLPYWLLRKVIEIEKQEKEKQQAANNALLLDTI (C-terminal amide) [SEQ ID NO 311] | 11.7 nM | 100% | 1000 nM | 29.7%
ZGPPISIDLPYHLLRKVIEIEKQEKEKQQAANNALLLATI (C-terminal amide) [SEQ ID NO 313] | 11.1 nM | 95% | 704 nM | 87.1%
ZGPPISIDLPIFLLRKMIEIEKQEKEKQQAANNARLLARI (not fully specified; C-terminal amide) [SEQ ID NO 282] | 25.8 nM | 60.8% | 1000 nM | 21.8%
ZGPPISIDLPIALLRKMIEIEKQEKEKQQAANNRLLLDTI (C-terminal amide) [SEQ ID NO 306] | 27.6 nM | 100% | 608 nM | 97.7%
